This test has as its target antigens on human iPSC-derived brain microvascular endothelial cells (BMECs) (human). Kind of test: flow cytometry of BMECs with phage, anti-M13 detection. (A flow cytometer gives signals particle by particle.)

In the case of “phage displaying anti-botulinum neurotoxin scFv”, the geometric mean (fluorescence) amounted to 3.16.

The values are drawn from patent US20230331835A1.
